B1: Atg17, wild type (natural protein, Saccharomyces cerevisiae, UniProt Q06410 1-417, looked up)
chain: MNEADVTKFVNNARKTLTDAQLLCSSANLRIVDIKKKLSSWQLSISKLNFLIVGLRQQGKFLYTILKEGIGTKLIQKQWNQAVLVVLVDEMKYWQYEITSKVQRLDGIVNELSISEKDDTDPSKLGDYISRDNVNLLNDKLKEVPVIERQIENIKLQYENMVRKVNKELIDTKLTDVTQKFQSKFGIDNLMETNVAEQFSRELTDLEKDLAEIMNSLTQHFDKTLLLQDKKIDNDEREELFKVVQGDDKELYNIFKTLHEVIDDVDKTILNLGQFLQAKIKEKTELHSEVSEIINDFNRNLEYLLIFKDISNLIDSFKNSCTQDIQTTKELCEFYDNFEESYGNLVLEAKRRKDVANRMKTILKDCEKQLQNLDAQDQEERQNFIAENGTYLPETIWPGKIDDFSSLYTLNYNVKNP
notes: Atg17, Saccharomyces cerevisiae; The Atg17 chain of m1; source: E. coli BL21 (DE3), co-expressed with Atg31 and His6-Atg29 from pST39, purified (Ni-NTA, Superose 6)
B2: Atg17 mutant M5 (K92D/L141D) (natural protein, Saccharomyces cerevisiae, UniProt Q06410 1-417, looked up)
chain: B1 chain with K92D, L141D
notes: Atg17, Saccharomyces cerevisiae; The Atg17 chain of m6; source: E. coli BL21 (DE3), co-expressed with Atg31 and His6-Atg29 from pST39, purified (Ni-NTA, Superose 6)
B3: Atg17 mutant M3 (K8D/R14D/K249D) (natural protein, Saccharomyces cerevisiae, UniProt Q06410 1-417, looked up)
chain: B1 chain with K8D, R14D, K249D
notes: Atg17, Saccharomyces cerevisiae; The Atg17 chain of m4; source: E. coli BL21 (DE3), co-expressed with Atg31 and His6-Atg29 from pST39, purified (Ni-NTA, Superose 6)
B4: Atg17 mutant M2 (K318D/K329D/Y93E/W94E) (natural protein, Saccharomyces cerevisiae, UniProt Q06410 1-417, looked up)
chain: B1 chain with Y93E, W94E, K318D, K329D
notes: Atg17, Saccharomyces cerevisiae; The Atg17 chain of m3; source: E. coli BL21 (DE3), co-expressed with Atg31 and His6-Atg29 from pST39, purified (Ni-NTA, Superose 6)
B5: Atg17 mutant M4 (K164D/K173D/R299D) (natural protein, Saccharomyces cerevisiae, UniProt Q06410 1-417, looked up)
chain: B1 chain with K164D, K173D, R299D
notes: Atg17, Saccharomyces cerevisiae; The Atg17 chain of m5; source: E. coli BL21 (DE3), co-expressed with Atg31 and His6-Atg29 from pST39, purified (Ni-NTA, Superose 6)
B6: Atg17 mutant M1 (K318D/Q326D/K329D) (natural protein, Saccharomyces cerevisiae, UniProt Q06410 1-417, looked up)
chain: B1 chain with K318D, Q326D, K329D
notes: Atg17, Saccharomyces cerevisiae; The Atg17 chain of m2; source: E. coli BL21 (DE3), co-expressed with Atg31 and His6-Atg29 from pST39, purified (Ni-NTA, Superose 6)

Changes are numbered by the printed parent chain. Names may count otherwise.

This data set deals with the molecule itself. Briefly: SEC; ternary complex co-expressed in E. coli, captured on Ni-NTA by His6-Atg29, then Superose 6 10/300GL in 20 mM Tris pH 8, 200 mM NaCl, 0.1 mM TCEP; peak fractions analysed by SDS-PAGE. (In gel filtration, larger molecules generally elute earlier.)
In the case of B1, the binding result was “binds”.

Turning to B2, the binding result was “binds”.

Consider B3, for which the binding result is “binds”.

B4: the binding result is listed as “binds”.

On to B5, for which the binding result was “binds”.

In the case of B6, the binding result is recorded as “binds”.

The values are drawn from PMC5669500, “Scaffolding the cup-shaped double membrane in autophagy” (PLoS Computational Biology, 2017).
